According to the supplement of paper PMC10567573:

B1: MLL5 (parent)
chain: HDDGYMICCDKCSVWQHIDCMGID
B2: C19orf51 (parent)
chain: FAPQTGARPSETFARFCKSQESAL
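Also: lentivirally expressed fusions sorted by FACS into six bins by GFP to DsRed ratio, PSI derived from sequencing read proportions per bin multiplied by bin number.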

Variants of: B1
Experiment: protein stability index of a GFP-peptide fusion (GPS, HEK-293T) (PSI 1-6); higher = more stable
Settings: c terminus: a fixed tail appended
In the case of HDKGYMICCDKCSVWQHIDCMGID, the protein stability index is reported as 1.88. With HDYGYMICCDKCSVWQHIDCMGID the protein stability index was 1.91. For HDIGYMICCDKCSVWQHIDCMGID, the protein stability index was 1.63. In the case of HDHGYMICCDKCSVWQHIDCMGID, the protein stability index is reported as 2.01. HDCGYMICCDKCSVWQHIDCMGID showed a protein stability index of 2.06. Variant HDPGYMICCDKCSVWQHIDCMGID has a protein stability index of 2.65. For HDSGYMICCDKCSVWQHIDCMGID, the protein stability index was 1.69. Work on HDWGYMICCDKCSVWQHIDCMGID yielded a protein stability index of 1.88. With HDRGYMICCDKCSVWQHIDCMGID the protein stability index was 2.02. For HDMGYMICCDKCSVWQHIDCMGID, the protein stability index was 1.69. HDGGYMICCDKCSVWQHIDCMGID showed a protein stability index of 2.47. Variant HDQGYMICCDKCSVWQHIDCMGID has a protein stability index of 2.43. HDNGYMICCDKCSVWQHIDCMGID showed a protein stability index of 2.09. HDAGYMICCDKCSVWQHIDCMGID showed a protein stability index of 2.13. For HDDGYMLCCDKCSVWQHIDCMGID, the protein stability index was 2.06. Variant HDDGYMYCCDKCSVWQHIDCMGID has a protein stability index of 2.77. With HDDGYMPCCDKCSVWQHIDCMGID the protein stability index was 2.71. With HDDGYMNCCDKCSVWQHIDCMGID the protein stability index was 3.12. With HDDGYMFCCDKCSVWQHIDCMGID the protein stability index was 2.72. HDDGYMKCCDKCSVWQHIDCMGID gave a protein stability index of 3.45. Variant HDDGYMWCCDKCSVWQHIDCMGID has a protein stability index of 3.09. Variant HDDGYMRCCDKCSVWQHIDCMGID has a protein stability index of 2.45. HDDGYMQCCDKCSVWQHIDCMGID showed a protein stability index of 3.51. HDDGYMHCCDKCSVWQHIDCMGID showed a protein stability index of 3.55. Work on HDDGYMACCDKCSVWQHIDCMGID yielded a protein stability index of 3.2. HDDGYMDCCDKCSVWQHIDCMGID gave a protein stability index of 3.42. For HDDGYMMCCDKCSVWQHIDCMGID, the protein stability index was 2.29. For HDDGYMECCDKCSVWQHIDCMGID, the protein stability index was 3.23. With HDDGYMCCCDKCSVWQHIDCMGID the protein stability index was 3.79. With HDDGYMGCCDKCSVWQHIDCMGID the protein stability index was 3.82. For HDDGYMVCCDKCSVWQHIDCMGID, the protein stability index was 2.79. Work on HDDGYMTCCDKCSVWQHIDCMGID yielded a protein stability index of 2.93. For MDDGYMICCDKCSVWQHIDCMGID, the protein stability index was 1.57. Work on EDDGYMICCDKCSVWQHIDCMGID yielded a protein stability index of 2.5. YDDGYMICCDKCSVWQHIDCMGID showed a protein stability index of 3.85. LDDGYMICCDKCSVWQHIDCMGID gave a protein stability index of 2.47. With RDDGYMICCDKCSVWQHIDCMGID the protein stability index was 2.29. NDDGYMICCDKCSVWQHIDCMGID showed a protein stability index of 2.73. In the case of QDDGYMICCDKCSVWQHIDCMGID, the protein stability index is reported as 2.24. With TDDGYMICCDKCSVWQHIDCMGID the protein stability index was 2.19. FDDGYMICCDKCSVWQHIDCMGID gave a protein stability index of 1.66. For IDDGYMICCDKCSVWQHIDCMGID, the protein stability index was 1.98. CDDGYMICCDKCSVWQHIDCMGID gave a protein stability index of 2.1. Work on VDDGYMICCDKCSVWQHIDCMGID yielded a protein stability index of 2.61. KDDGYMICCDKCSVWQHIDCMGID showed a protein stability index of 2.95. DDDGYMICCDKCSVWQHIDCMGID gave a protein stability index of 2.83. In the case of WDDGYMICCDKCSVWQHIDCMGID, the protein stability index is reported as 2.63. With SDDGYMICCDKCSVWQHIDCMGID the protein stability index was 2.81. GDDGYMICCDKCSVWQHIDCMGID showed a protein stability index of 2.25. With PDDGYMICCDKCSVWQHIDCMGID the protein stability index was 1.86. In the case of ADDGYMICCDKCSVWQHIDCMGID, the protein stability index is reported as 2.42.

Variants of: B2
Experiment: as above
Settings: c terminus: a fixed tail appended
FAPQTGARPSETFARFCKSQNSAL showed a protein stability index of 1.79. For FAPQTKARPSETFARFCKSQESAL, the protein stability index was 2.51. FAPQTPARPSETFARFCKSQESAL showed a protein stability index of 1.95. In the case of FWPQTGARPSETFARFCKSQESAL, the protein stability index is reported as 2.02. For FMPQTGARPSETFARFCKSQESAL, the protein stability index was 1.45. With FAPQTGARPSETFARFCKSQEWAL the protein stability index was 1. In the case of FAPQTGARPSETFARFCKSQEPAL, the protein stability index is reported as 3.4. With FAPQTGARPSETFARFCKSQERAL the protein stability index was 1.51. FAPTTGARPSETFARFCKSQESAL showed a protein stability index of 2.06. With SAPQTGARPSETFARFCKSQESAL the protein stability index was 3.79. Work on KAPQTGARPSETFARFCKSQESAL yielded a protein stability index of 3.54. Work on FAPQTGAAPSETFARFCKSQESAL yielded a protein stability index of 2.93. FAPQPGARPSETFARFCKSQESAL showed a protein stability index of 1.81. Work on FAPQTGARPSETFAKFCKSQESAL yielded a protein stability index of 2.48. In the case of FAIQTGARPSETFARFCKSQESAL, the protein stability index is reported as 1.72. Work on FATQTGARPSETFARFCKSQESAL yielded a protein stability index of 1.98. Work on FAQQTGARPSETFARFCKSQESAL yielded a protein stability index of 2.72. In the case of FAKQTGARPSETFARFCKSQESAL, the protein stability index is reported as 2.51. In the case of FAPQTGARPSETFARFCKSMESAL, the protein stability index is reported as 1.72. FAPQTGARPSETFARFCKSYESAL showed a protein stability index of 2.31. In the case of FAPQTGARPSETFARFCKSFESAL, the protein stability index is reported as 1.73. FAPQTGARPSETFARFCKSIESAL gave a protein stability index of 2.92. With FAPQTGARPSETFARFCKSQESVL the protein stability index was 1.68. In the case of FAPQTGARPSETFARFCGSQESAL, the protein stability index is reported as 2.56. Work on FAPQTGARPSETFARFCTSQESAL yielded a protein stability index of 2.6. Variant FAPQTGARPSETFARFCYSQESAL has a protein stability index of 1.99. Variant FAPQTGARPSETFARFCKSQESAD has a protein stability index of 1.88. FAPQTGARPIETFARFCKSQESAL gave a protein stability index of 2.32. In the case of FAPQTGARPSETFARHCKSQESAL, the protein stability index is reported as 2.07. FAPQTGARPSETFARNCKSQESAL showed a protein stability index of 1.93. FAPQTGARPSETFARTCKSQESAL gave a protein stability index of 2.52. FAPQTGARPSETFARECKSQESAL gave a protein stability index of 1.54. FAPQTGARPSETFARSCKSQESAL gave a protein stability index of 2.79. Work on FAPQTGARPSETFARQCKSQESAL yielded a protein stability index of 1.54. Work on FAPQTGARPSEMFARFCKSQESAL yielded a protein stability index of 2.29. For FAPQTGARPSETFARFLKSQESAL, the protein stability index was 1.42. FAPQTGARPSETFARFQKSQESAL gave a protein stability index of 1.35. For FAPQTGARPSETFARFDKSQESAL, the protein stability index was 1.68. FAPQTGARPSETIARFCKSQESAL showed a protein stability index of 1.7. With FAPQTGARPSETDARFCKSQESAL the protein stability index was 1.86. In the case of FAPQTGARPSETFNRFCKSQESAL, the protein stability index is reported as 1.44. In the case of FAPQTGARPSETFLRFCKSQESAL, the protein stability index is reported as 2.12. FAPQTGARPSETFRRFCKSQESAL showed a protein stability index of 1.82.
